To fix the notation:
B1: library; numbered along this chain (parent)
chain: MRKPRAAVGSGHRKQAASQEGRQKHAKNNSQAKPSACDGLARQPEEVVLQASVSSYHLFRDVAEVTAFRGSLLSWYDQEKRDLPWRRRAEDEMDLDRRAYAVWVSEVMLQQTQVATVINYYTGWMQKWPTLQDLASASLEEVNQLWAGLGYYSRGRRLQEGARKVVEELGGHMPRTAETLQQLLPGVGRYTAGAIASIAFGQATGVVDGNVARVLCRVRAIGADPSSTLVSQQLWGLAQQLVDPARPGDFNQAAMELGATVCTPQRPLCSQCPVESLCRARQRVEQEQLLASGSLSGSPDVEECAPNTGQCHLCLPPSEPWDQTLGVVNFPRKASRKPPREESSATCVLEQPGALGAQILLVQRPNSGLLAGLWEFPSVTWEPSEQLQRKALLQELQRWAGPLPATHLRHLGEVVHTFSHIKLTYQVYGLALEGQTPVTTVPPGARWLTQEEFHTAAVSTAMKKVFRVYQGQQPGTCMGSKRSQVSSPCSRKKPRMGQQVLDNFFRSHISTDAHSLNSAAQ
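Note: cells sorted at 72 h after reporter transfection.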

The variants in the series derive from B1. Briefly: 8OG:A repair function score (normalized; synonymous = 0, nonsense = -1) (normalized log-likelihood score); higher = more repair activity (WT-like). The conditions noted are these: with 8OG:A DNA repair reporter (GFP) in HEK-293 MUTYH KO cells. The procedure, abridged: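 Lentiviral MUTYH cDNA NNN codon-scan libraries were expressed in MUTYH knockout HEK-293 cells with 10 pg/ml doxycycline, and the cells received an 8OG:A GFP repair reporter together with mCherry. At 72 h, viable mCherry+ cells went into GFP+ (repair) or GFP− bins, three replicates per tile, before tile amplicons were sequenced. A repair function score was then built from per-tile Rosace fitness scores, anchored on the synonymous and nonsense distributions. Synonymous medians sat at 0 and nonsense at -1, and variants under 300 counts per million at the start were left out.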
As for MRKPRAAVGSGHRKQAASQEGRQKHAKNNSQAKPSACDGLARQPEEVVLQASVSSYHLFRDVAEVTAFRGSLLSWYDQEKRDLPWRRRAEDEMDLDRRAYAVWVSEVMLQQTQVATVINYYTGWMQKWPTLQDLASASLEEVNQLWAGLGYYSRGRRLQEGARKVVEELGGHMPRTAETLQQLLPGVGRYTAGAIASIAFGQATGVVDGNVARVLCRVRAIGADPSSTLVSQQLWGLAQQLVDPARPGDFNQAAMELGATVCTPQRPLCSQCPVESLCRARQRVEQEQLLASGSLSGSPDVEECAPNTGQCHLCLPPSEPWDQTLMVVNFPRKASRKPPREESSATCVLEQPGALGAQILLVQRPNSGLLAGLWEFPSVTWEPSEQLQRKALLQELQRWAGPLPATHLRHLGEVVHTFSHIKLTYQVYGLALEGQTPVTTVPPGARWLTQEEFHTAAVSTAMKKVFRVYQGQQPGTCMGSKRSQVSSPCSRKKPRMGQQVLDNFFRSHISTDAHSLNSAAQ [G326M], the “8OG:A repair function score” value was -0.634. As for MRKPRAAVGSGHRKQAASQEGRQKHAKNNSQAKPSACDGLARQPEEVVLQASVSSYHLFRDVAEVTAFRGSLLSWYDQEKRDLPWRRRAEDEMDLDRRAYAVWVSEVMLQQTQVATVINYYTGWMQKWPTLQDLASASLEEVNQLWAGLGYYSRGRRLQEGARKVVEELGGHMPRTAETLQQLLPGVGRYTAGAIASIAFGQATGVVDGNVMRVLCRVRAIGADPSSTLVSQQLWGLAQQLVDPARPGDFNQAAMELGATVCTPQRPLCSQCPVESLCRARQRVEQEQLLASGSLSGSPDVEECAPNTGQCHLCLPPSEPWDQTLGVVNFPRKASRKPPREESSATCVLEQPGALGAQILLVQRPNSGLLAGLWEFPSVTWEPSEQLQRKALLQELQRWAGPLPATHLRHLGEVVHTFSHIKLTYQVYGLALEGQTPVTTVPPGARWLTQEEFHTAAVSTAMKKVFRVYQGQQPGTCMGSKRSQVSSPCSRKKPRMGQQVLDNFFRSHISTDAHSLNSAAQ [A212M], the “8OG:A repair function score” value was -0.344. Next, MRKPRAAVGSGHRKQAASQEGRQKHAKNNSQAKPSACDGLARQPEEVVLQASVSSYHLFRDVAEVTAFRGSLLSWYDQEKRDLPWRRRAEDEMDLDRRAYAVWVSEVMLQQTQVATVINYYTGWMQKWPTLQDLASASLEEVNQLWAGLGYYSRGRRLQEGARKVVEELGGHMPRTAETLQQLLPGVGRYTAGAIASIAFGQATGVVVGNVARVLCRVRAIGADPSSTLVSQQLWGLAQQLVDPARPGDFNQAAMELGATVCTPQRPLCSQCPVESLCRARQRVEQEQLLASGSLSGSPDVEECAPNTGQCHLCLPPSEPWDQTLGVVNFPRKASRKPPREESSATCVLEQPGALGAQILLVQRPNSGLLAGLWEFPSVTWEPSEQLQRKALLQELQRWAGPLPATHLRHLGEVVHTFSHIKLTYQVYGLALEGQTPVTTVPPGARWLTQEEFHTAAVSTAMKKVFRVYQGQQPGTCMGSKRSQVSSPCSRKKPRMGQQVLDNFFRSHISTDAHSLNSAAQ [D208V]: -0.996. For MRKPRAAVGSGHRKQAASQEGRQKHAKNNSQAKPSACDGLARQPEEVVLQASVSSYHLFRDVAEVTAFRGSLLSWYDQEKRDLPWRRRAEDEMDLDRRAYAVWVSEVMLQQTQVATVINYYTGWMQKWPTLQDLASASLEEVNQLWAGLGYYSRGRRLQEGARKVVEELGGHMPRTAETLQQLLPGVGRYTAGAIASIAFGQATGVVDGNVARVLCRVRAIGADPSSTLVSQQLWGLAQQLVDPARPGDFNQAAMELGATVCTPQRPLCSQCPVESLCRARQRVEQEQLLASGSLSGSPDVEECAPNTGQCHLCLPPSEPWDQTLGVVNFPRKASRKPPREESSATCVLEQPGALGAQILLVQRPNSGLLAGLWEFPSVTWEPSEQLQRKALLQELQRWAGPLPATHLRHLGEVVHTFSHIKLTYQVYGLALEGQTPVTTVPPGARWLTQEEFHTAAVSTAMKKVFRVYQGQQPGTCMGSKRSQVSSPCSMKKPRMGQQVLDNFFRSHISTDAHSLNSAAQ [R491M] the value was 0.0281. Next, MRKPRAAVGSGHRKQAASQEGRQKHAKNNSQAKPSACDGLARQPEEVVLQASVSSYHLFRDVAEVTAFRGSLLSWYDQEKRDLPWRRRAEDEMDLDRRAYAVWVSEVMLQQTQVATVINYYTGWMQKWPTLQDLASASLEEVNQLWAGLGYYSRGRRLQEGARKVVEELGGHMPRTAETLQQLLPGVGRYTAGAIASIAFGQATGVVDGNVARVLCRVRAIGADPSSTLVSQQLWGLAQQLVDPARPGDFNQAAMELGATVCTPQRPLCSQCPVESLCRARQRVEQEQLLASGSLSGSPDVEECAPNTGQCHLCLPPSEPWDQTLGVVNFPRKASRKPPREESSATCVLEQPGALGAQILLVQRPNSGLLAGLWEFPSVTWEPSEQLQRKALLQELQRWAGPLPATHLRHLGEVVHTFSHIKLTYQVYGLALEGQTPVTTVPPGARWLTQEEFHTAAVSTAMKKVFRVYQIQQPGTCMGSKRSQVSSPCSRKKPRMGQQVLDNFFRSHISTDAHSLNSAAQ [G471I]: -0.00761; MRKPRAAVGSGHRKQAASQEGRQKHAKNNSQAKPSACDGLARQPEEVVLQASVSSYHLFRDVAEVTAFRGSLLSWYDQEKRDLPWRRRAEDEMDLDRRAYAVWVSEVMLQQTQVATVINYYTGWMQKWPTLQDLASASLEEVNQLWAGLGYYSRGRRLQEGARKVVEELGGHMPRTAETLQQLGPGVGRYTAGAIASIAFGQATGVVDGNVARVLCRVRAIGADPSSTLVSQQLWGLAQQLVDPARPGDFNQAAMELGATVCTPQRPLCSQCPVESLCRARQRVEQEQLLASGSLSGSPDVEECAPNTGQCHLCLPPSEPWDQTLGVVNFPRKASRKPPREESSATCVLEQPGALGAQILLVQRPNSGLLAGLWEFPSVTWEPSEQLQRKALLQELQRWAGPLPATHLRHLGEVVHTFSHIKLTYQVYGLALEGQTPVTTVPPGARWLTQEEFHTAAVSTAMKKVFRVYQGQQPGTCMGSKRSQVSSPCSRKKPRMGQQVLDNFFRSHISTDAHSLNSAAQ [L184G]: -0.899.

(Values after the supplement of paper PMC11908140.)
